Test results taken from the DeepSol protein solubility set.

test: soluble on expression in E. coli; label from the status in PepcDB or PDB records

Sequence | soluble on expression in E. coli
MGSDKIHHHHHHMSTTMQVIELNGPNRLSISQRQVPETPVDGVLLKTSAVSICSTDISHYHGNLLAEDYPVILGHEYSGIVVDVGPECPSSLQGQRLAYFGQTDFGGMAEYRALRPLFAGDLRSSPFKTGRFFKDDERAAAITLPDEISDSDAPLIEPITAVLRSILTHPPAVGNRVLVLGGGPCGAIAGAILQTLYATKSVAVLERNQARQEIARSQYANFVFGSAEELRESDDDAFDYVFDALPPLVNIEADSCPRRAAMRAAKPGSKYVLYGASQTLQQFDTWLLLAKGITLASAAFDVDHFPMYKTAFVMKTAKELLLRRIIDPGWMMTNHMSFWRPQEVIQFFAEYYTTPHLKTVIHFDQ | not soluble
MSLKRIYGSNRYETSIMVSKEGWDKSSYAVISRGDNFADALCAVPLSKKYNAPILLIGKDKLNNNLKSELKRLNVSKVFITGGEGVISKTLEGEIKNIPNIKEVKRLGGKDRYETSKLIAESVGCNGEIVVTAGTNSSDTLSISPIAANKNMPILLTAKDKNLMQKYLKSNKVNKTFVIGGEKCVSKEIENILPNVERIYGENRYETNEKIIKRFSNSLDFKNVYIALAQSQRGDEFADALSSAALAAQKNSPIILIYKDIYKNTKDILNTKLSNESIVSILGGEKLISDNILDNLAISKNEGHHHHHH | not soluble
MKVPEAAISRLITYLRILEELEAQGVHRTSSEQLGELAQVTAFQVRKDLSYFGSYGTRGVGYTVPVLKRELRHILGLNRKWGLCIVGMGRLGSALADYPGFGESFELRGFFDVDPEKVGRPVRGGVIEHVDLLPQRVPGRIEIALLTVPREAAQKAADLLVAAGIKGILNFAPVVLEVPKEVAVENVDFLAGLTRLSFAILNPKWREEMMG | soluble
MNLSIFGLKNIPYLKEGDSIEKLIEESIKTSEFFIEDNDVLCIASKVVSIAEGQVMSLNEIQVSDVAKEIHRNIPRKDPRIIEIMLNLVNRDLSRLDIKKNYIGCRLENGLKLTSGGIDRKSVDEVFLLPNNPDASAKRISEYLKKSLGKNVAVVITDSDGREDKRGATQVAIGIYGIHPLRKTEVIDSQGETIKFQEETLCDMIAACAGLVMGQRGTGIPAVLIRGLDYKWSENTSIKEALNE | not soluble
MLARCLAFSYPASTFLIFFLRRRLSHHLWHPTYPRVLNSVRPAFRLAPFVSQKDTDMTVEQPIQVDTLVVGAGQAGVAMSEHLSKLGVPHLVLERSRVAEAWRTGRWDSLVANGPAWHDRFPGMEFDVAADAFPAKDQVADYFEAYARKFNAPIRTGVEVRKVLRNVGRPGFTVETSEGLIQAQRVVAATGPFQRPVIPPIATANDRLTQIHSAEYRNPQQLPEGAVLVVGAGSSGVQIADELQRAGRRVYLSVGAHDRPPRSYRNRDFCWWLGVLGEWDAEIAKPGREHVTIAVSGARGGQTIDFRALAHQGITLVGLTKAFAGEHVTFQADLLDNLARGDENYLALLDAADAYIARNGLDLPLEPEARRRLPDPDCVKQPILELDLQQAGITSIIWATGYAVDFSWLQVDTFSEQGKPLHQRGVSREPGVYFLGLPWLSRRGSSFIWGVWHDAKHVADHIATQRKYQAYSDARPPAATAEAPALNLSPVGAHLEHHHHHH | not soluble
GSHMASMTGGQQMGRGSENLYFQGNPILAGLGFSLPKRQVSNHDLVGRINTSDEFIVERTGVRTRYHVEPEQAVSALMVPAARQAIEAAGLLPEDIDLLLVNTLSPDHHDPSQACLIQPLLGLRHIPVLDIRAQCSGLLYGLQMARGQILAGLARHVLVVCGEVLSKRMDCSDRGRNLSILLGDGAGAVVVSAGESLEDGLLDLRLGADGNYFDLLMTAAPGSASPTFLDENVLREGGGEFLMRGRPMFEHASQTLVRIAGEMLAAHELTLDDIDHVICHQPNLRILDAVQEQLGIPQHKFAVTVDRLGNMASASTPVTLAMFWPDIQPGQRVLVLTYGSGATWGAALYRKPEEVNRPC | soluble
MNNSLIVRQLGLQDYQEIWHKMQDFTDTRNAETQDEIWLVQHYPVFTQGQAGKPEHLLQRSEIPVVQSVRGGQITYHAPGQQVMYVLIDIKRHKNLNVRQLVTALEQTVVKTLAEYGIESYPKPDAPGVYVDGKKICSLGLRIRRGCSFHGLALNINMDLNPFHYINPCGYAGLEMCQLADFVNQDKADCDNVSAKLIKHFANLLGYNITTLLEHHHHHH | soluble
GEAPADRLKALVDAAVQPVMKANDIPGLAVAISLKGEPHYFSYGLASKEDGRRVTPETLFEIGSVSKTFTATLAGYALTQDKMRLDDRASQHWPALQGSRFDGISLLDLATYTAGGLPLQFPDSVQKDQAQIRDYYRQWQPTYAPGSQRLYSNPSIGLFGYLAARSLGQPFERLMEQQVFPALGLEQTHLDVPEAALAQYAQGYGKDDRPLRVGPGPLDAEGYGVKTSAADLLRFVDANLHPERLDRPWAQALDATHRGYYKVGDMTQGLGWEAYDWPISLKRLQAGNSTPMALQPHRIARLPAPQALEGQRLLNKTGSTNGFGAYVAFVPGRDLGLVILANRNYPNAERVKIAYAILSGLEQQGKVPLKR | soluble
MGSDKIHHHHHHMSMSVQQIDWDLALIQKYNYSGPRYTSYPTALEFSEDFGEQAFLQAVARYPERPLSLYVHIPFCHKLCYFCGCNKIVTRQQHKADQYLDALEQEIVHRAPLFAGRHVSQLHWGGGTPTYLNKAQISRLMKLLRENFQFNADAEISIEVDPREIELDVLDHLRAEGFNRLSMGVQDFNKEVQRLVNREQDEEFIFALLNHAREIGFTSTNIDLIYGLPKQTPESFAFTLKRVAELNPDRLSVFNYAHLPTIFAAQRKIKDADLPSPQQKLDILQETIAFLTQSGYQFIGMDHFARPDDELAVAQREGVLHRNFQGYTTQGDTDLLGMGVSAISMIGDCYAQNQKELKQYYQQVDEQGNALWRGIALTRDDCIRRDVIKSLICNFRLDYAPIEKQWDLHFADYFAEDLKLLAPLAKDGLVDVDEKGIQVTAKGRLLIRNICMCFDTYLRQKARMQQFSRVI | not soluble
MAHHHHHHMLCVSVAKDGFAIVLTGLDTKRRAPPHQQRLSRNVCFHQTKAKEFVARFHQPCFLAWSHRTIGHPDALQDGARRRQEYKPSHSHPFFRCNEGAHQHMCG | soluble
GSAHRFPALTQEQKKELSEIAQSIVANGKGILAADESVGTMGNRLQRIKVENTEENRRQFREILFSVDSSINQSIGGVILFHETLYQKDSQGKLFRNILKEKGIVVGIKLDQGGAPLAGTNKETTIQGLDGLSERCAQYKKDGVDFGKWRPVLRIADQCPSSLAIQENANALARYASICQQNGLVPIVEPEVIPDGDHDLEHCQYVTEKVLAAVYKALNDHHVYLEGTLLKPNMVTAGHACTKKYTPEQVAMATVTALHRTVPAAVPGICFLSGGMSEEDATLNLNAINLCPLPKPWKLSFSYGRALQASALAAWGGKAANKEATQEAFMKRAMANCQAAKGQYVHTGSSGAASTQSLFTACYTY | soluble
MLEIKRYKNRVASRKCRAKFKQLLQHYREVAAAKSSENDRLRLLLKQMCPSLDVDSIIPRTPD | soluble
MAHHHHHHMGKVRKNKQVRNLLKSLTERVDTDDGENEYARLTQTPVVSMRLSKVKFKTSLQNVLVEPYTERVKDFVAKNNYEIRMERALLDEIKNANQNMNRIGDVLSARGGKQGKTRDNHIIMSRYFHYLKDKDEDFGLSFFPVYKTFKSNASHFGDNLSSSLYPHELLQMGSMSSESFLKNSPKRISFPERGDS | not soluble
MGSDKIHHHHHHMVKNYVLDTNVLIHDPDSIFSFEDNNVIIPLPVLEELDKLKREHGSVGKNAREVIRHLDELRKKGNLRKGIPLENGGILRVMVLEREVENVPRFLHERYVDNIILAYVIELMNREKIPTILVSKDINLRVKADSLGIPAQDYLTDRSELETMPKGYVEIDDEELKKQLKVKVTVEKKLDLLDNFYIDLGGVYGKYRKGKVLRVEPFETMGISPRNREQIFSMDALLDDEIPLVFLVGIAGTGKTLLALACGLYKVLVEKRYKKLIVTRPTVPMGRDIGYLPGELEKKMKPWLQPIMDNLELISSLSGLKIKELEKQEILEVEAISFIRGRSIPKQFIIIDEAQNLTPHEVKTILTRVGEDTKIVLVGDPYQIDTPYLDKDTNGLVYAALKLLESDLSAVIKLEKGERSRLATIAAELL | not soluble
MSLNRNDKRGARRNILAHYDLGNALFERLLDPTMMYSAAQFEHPGQTLEQAQLHKLERICQKLELSPDDHLLEIGSGWGSLAIHAATRYGCRVTTTTLSEAQYSHTLERVKALGLGQRVQVLREDYRDLQGTFDKLVSIEMIEAVGHRYLPVYFRQCASLLKPEGLMLLQAITIRDQRYAQAQRSVDFIQRYIFPGGALPSLSVLLDTASRHTGLNLVHMEDFGLDYAHTLRHWRENLRQARTALTDLGYDDMFQRLWEFYLCYCQGGFEERAIGVAHLLWAAEGHHHHHH | soluble
PKPPYSYIALITMAIRDSAGGRLTLAEINEYLMGKFPFFRGSYTGWRNSVRHNLSLNDCFVKVLRDPSRPWGKDNYWMLNPNSEYTFADGVFRRRRYRLS | soluble
MSLSDSRSDDRHPSVTPEQLATLSHEFRTPLNGVLGMARLLENTKLTAEQRSYVTALRESGDHLLSLVNDVLHFARLGAAAIELSLAPVDIEGLLRQVAELMSPRAHEKGIEIAWAVSSPLPTILADEGRLRQILLNFAGNAVKFTEAGGVLLTASAIDGGRVRFSVADTGPGVAPDARARIFEAFVQTDVTHATQLGGAGLGLAIVSRLSAAMGGAVGVGGELGQGAEFWFEAPFATAAAPLRAAPLEGRNVAIASPNAIVRAATARQIEAAGGRAYAAVDIASALAGAPADAVLLIDAALSGPRGALKPPAGRRSVVLLTPEQRDRIDRLKAAGFSGYLIKPLRAASLVAQVLQAVTADGVAEDEPAHDDRIAGAVASGARVLLAEDNPINALLARTLLEREGCIVDRVADGEQAIAAASAGVYDLILMDLRMPGLTGIEAARALRAKGVATPIAALTADAFDEDRRTCLAAGMDDFLVKPLTQEALRDALKRWTTGGVSGEGHHHHHH | soluble
MGSDKIHHHHHHMYHEFTPCAALVPFIDKFWVFKGFTDIGTRFKILADGCTDFIFSIGNMTVPTDEHSMIMQPYRSFFVGPMRSYSNLTATTDSLHMLGVRFQPCGLAAFTNEPLGQFADLRIQSSDINLLFDNSFAEMLCEQPDDSVRIRIIEGYLIRLLTQSIQVDRQIIYATSFIKQSYGQLPVQNLIDKICICQRHFQRKFKDATGYTPKEFSRIIKFQYAIEVLRNAPHTDLSSIALDCGYYDHSHFIKEFKRLAGDVPSYFLTLPNPADEPLTYI | not soluble
MKKSILFICLLTLASTLAKVQAQEERNHGIIWSSLHGLEYGVKAGFNIGGTSPLPLPQEIRAITGYSPNVCFAIEGNVTKWFDKDKKWGMILGLRLENKGMETKARVKNYGMEIIGDGGEHLAGNWTGKVKTKFKASYFSIPILAAYQLSPRVRLSAGPYVSFMTSGDFNGYVSDGYLRKGDPTGTKVEFKDGNTAPYDFSKDLRSFQWGMQAGAEWKAFKHLTVHADLEWGLNDIFKKEFKTITFNMYPIYLNAGFGYAF | not soluble
MGSDKIHHHHHHMSCLVLPLVSVGNIPQLSIDWLLNSQANEWEYLEALDSKYLVEFVGPLDRPEDGSDSLYKDADMKYSSALEVFYNKKRGLFAIQQRTPLVSVNYLNNFIVEIILPFLSKYNISEICIWDSLYAMEDENGVIVRPQEVYSLGEFYFDDEAELLSNLHLNDQESMVNNWLHFTPTSFQDKISVDQPIFKILFQILNASQRPKALRSIKYCSCLANEGDNSLDSQQFLQWIISQKVIKNAPPIVKFVRPISWQGAYGMADARDKFVDLYN | not soluble
